The values that follow come from patent EP4814014A1, “BINDING MOLECULE AND ANTIBODY-DRUG CONJUGATE AND USE THEREOF” (priority 2023, dated 2025).

Numbering of substitutions follows the chain as printed.

First the molecules themselves.
B1: zn10A1.m6 (VHH, not shown: small tags and cut ends)
VHH: QVQLVESGGGLVQPGGSLRLSCAASGRTGSLHAMGWFRQAPGKERERVATLNLSDGSAVTADSVKGRFTISTDNSKNSVYLQMNSLRAEDTAVYYCTASRSPSGIRYYKPDYWGQGTLVTVSS
B2: pn10A1.m5 (VHH, not shown: small tags and cut ends)
VHH: B1 VHH with P14A, G56V, S75T, R87K, A88P, L118Q
B3: pn10A1.m6 (VHH, not shown: small tags and cut ends)
VHH: B1 VHH with P14A, G56A, S75T, R87K, A88P, L118Q
B4: pn10A1.m2 (VHH, not shown: small tags and cut ends)
VHH: B1 VHH with P14A, S54A, S75T, R87K, A88P, L118Q
B5: pn10A1.m3 (VHH, not shown: small tags and cut ends)
VHH: B1 VHH with P14A, N52Q, S54T, S75T, R87K, A88P, L118Q
B6: pn10A1.m1 (VHH, not shown: small tags and cut ends)
VHH: B1 VHH with P14A, N52Q, S75T, R87K, A88P, L118Q
B7: pn10A1.m4 (VHH, not shown: small tags and cut ends)
VHH: B1 VHH with P14A, D55E, S75T, R87K, A88P, L118Q
B8: V-n9B8 anti-EGFR VHH-His (VHH, not shown: small tags and cut ends)
VHH: QVQLVESGGGLVQPGGSLRLSCAASGLTFSYYAMAWFRQAPGKEREFVAAINWNGGNTYNTDSVKGRFTISRDNAKNTVYLQMNSLKPEDTAVYYCAVRYNSASYLVARSSDYNYWGQGTLVTVSS
notes: Monovalent parent VHH
B9: zn9B8.m4 (VHH, not shown: small tags and cut ends)
VHH: B8 VHH with Q1E, V5L, A75S, K87R, P88S
notes: Humanized anti-EGFR VHH-His
B10: zn5B10.m18 (VHH, not shown: small tags and cut ends)
VHH: EVQLVESGGGLVQPGGSLRLSCSASGTIIGTYTMAWYRQAPGKQREMVAIITPGGGSHHADSVKGRFTISRDNSKSTVYLQMSSLRAEDTAVYYCNAKARWGTTEYWGQGTLVTVSS
notes: Humanized anti-EGFR VHH-His
B11: zn5B10.m17 (VHH, not shown: small tags and cut ends)
VHH: B10 VHH with S23A, S76N, S83N, L112M
notes: Humanized anti-EGFR VHH-His
B12: zn5B10.m20 (VHH, not shown: small tags and cut ends)
VHH: B10 VHH with S76N, V78L
notes: Humanized anti-EGFR VHH-His; also called hu5B10
B13: zn5B10.m23 (VHH, not shown: small tags and cut ends)
VHH: B10 VHH with S21D, A87F
notes: Humanized anti-EGFR VHH-His
B14: zn5B10.m16 (VHH, not shown: small tags and cut ends)
VHH: B10 VHH with S23A, S76N, V78L, S83N, L112M
notes: Humanized anti-EGFR VHH-His
B15: zn5B10.m21 (VHH, not shown: small tags and cut ends)
VHH: B10 VHH with S74G, S76N, V78L
notes: Humanized anti-EGFR VHH-His
B16: zn5B10.m22 (VHH, not shown: small tags and cut ends)
VHH: B10 VHH with S76N, V78L, A87F
notes: Humanized anti-EGFR VHH-His
B17: zn10A1.m5 (VHH, not shown: small tags and cut ends)
VHH: QVQLVQSGPEVKKPGTSVKVSCKASGRTGSLHAMGWFRQARGQERERVATLNLSDGSAVTADSVKGRFTITTDNSKNSVYMELSSLRSEDTAVYYCTASRSPSGIRYYKPDYWGQGTMVTVSS
B18: V-13 (10A1-9A2-7A12) (bispecific antibody)
chain: QVQLVESGGGLVQAGGSLRLSCAASGRTGSLHAMGWFRQAPGKERERVATLNLSDGSAVTADSVKGRFTISTDNTKNSVYLQMNSLKPEDTAVYYCTASRSPSGIRYYKPDYWGQGTQVTVSSGGGGSQSQLAESGGGLVQSGGSLGLSCVASGFTISRSIMSWYRQPPGKERDWVASIGSAGNTNYVDSVKGRFTISRDVAKNTVYLQMNSLKPEDTAVYYCKTTLAVSFSEYWGQGTQVTVSSGGGGSGGGGSEVQLVESGGGLVQAGGSLRLSCVASGNIFSSNHMGWFRQAPGKQREFIAYITTREITNYADSVKGRFTISRDNTKNTVYLQMNVLKPEDTAVYYCIADQSREIRRSWGQGTQVTVSS
notes: Single-chain trispecific anti-EGFR/cMet antibody
B19: V-1 (5B10-9A2-7A12) (bispecific antibody)
chain: AVQLVDSGGGLVQPGGSLRLDCSASGTIIGTYTMAWYRQAPGKQREMVAIITPGGGSHHADSVKGRFTISRDNGKSTVYLQMSSLKFEDTAVYYCNAKARWGTTEYWGQGTQVTVSSGGGGSQSQLAESGGGLVQSGGSLGLSCVASGFTISRSIMSWYRQPPGKERDWVASIGSAGNTNYVDSVKGRFTISRDVAKNTVYLQMNSLKPEDTAVYYCKTTLAVSFSEYWGQGTQVTVSSGGGGSGGGGSEVQLVESGGGLVQAGGSLRLSCVASGNIFSSNHMGWFRQAPGKQREFIAYITTREITNYADSVKGRFTISRDNTKNTVYLQMNVLKPEDTAVYYCIADQSREIRRSWGQGTQVTVSS
notes: as for B18
B20: V-3 (5B10-7A12-9A2) (bispecific antibody)
chain: AVQLVDSGGGLVQPGGSLRLDCSASGTIIGTYTMAWYRQAPGKQREMVAIITPGGGSHHADSVKGRFTISRDNGKSTVYLQMSSLKFEDTAVYYCNAKARWGTTEYWGQGTQVTVSSGGGGSEVQLVESGGGLVQAGGSLRLSCVASGNIFSSNHMGWFRQAPGKQREFIAYITTREITNYADSVKGRFTISRDNTKNTVYLQMNVLKPEDTAVYYCIADQSREIRRSWGQGTQVTVSSGGGGSGGGGSQSQLAESGGGLVQSGGSLGLSCVASGFTISRSIMSWYRQPPGKERDWVASIGSAGNTNYVDSVKGRFTISRDVAKNTVYLQMNSLKPEDTAVYYCKTTLAVSFSEYWGQGTQVTVSS
notes: as for B18
B21: V-7 (9B8-9A2-7A12) (bispecific antibody)
chain: QVQLVESGGGLVQPGGSLRLSCAASGLTFSYYAMAWFRQAPGKEREFVAAINWNGGNTYNTDSVKGRFTISRDNAKNTVYLQMNSLKPEDTAVYYCAVRYNSASYLVARSSDYNYWGQGTLVTVSSGGGGSQSQLAESGGGLVQSGGSLGLSCVASGFTISRSIMSWYRQPPGKERDWVASIGSAGNTNYVDSVKGRFTISRDVAKNTVYLQMNSLKPEDTAVYYCKTTLAVSFSEYWGQGTQVTVSSGGGGSGGGGSEVQLVESGGGLVQAGGSLRLSCVASGNIFSSNHMGWFRQAPGKQREFIAYITTREITNYADSVKGRFTISRDNTKNTVYLQMNVLKPEDTAVYYCIADQSREIRRSWGQGTQVTVSS
notes: as for B18
B22: V-9 (9B8-7A12-9A2) (bispecific antibody)
chain: QVQLVESGGGLVQPGGSLRLSCAASGLTFSYYAMAWFRQAPGKEREFVAAINWNGGNTYNTDSVKGRFTISRDNAKNTVYLQMNSLKPEDTAVYYCAVRYNSASYLVARSSDYNYWGQGTLVTVSSGGGGSEVQLVESGGGLVQAGGSLRLSCVASGNIFSSNHMGWFRQAPGKQREFIAYITTREITNYADSVKGRFTISRDNTKNTVYLQMNVLKPEDTAVYYCIADQSREIRRSWGQGTQVTVSSGGGGSGGGGSQSQLAESGGGLVQSGGSLGLSCVASGFTISRSIMSWYRQPPGKERDWVASIGSAGNTNYVDSVKGRFTISRDVAKNTVYLQMNSLKPEDTAVYYCKTTLAVSFSEYWGQGTQVTVSS
notes: as for B18

For orientation: EC50 means the concentration needed to bring the measured effect to its halfway point. A word on the Kd: it is the equilibrium constant for the complex coming apart. What is called koff is the first-order rate constant of dissociation. As usually defined, the kon is a measure of how fast the partners come together.

In the first assay the target is T1, human EGFR on cells (human, UniProt P00533 25-1210).
T1 construct: whole, on cells; the cell line is named under assay; also called CHO-S-EGFR; CHOK1-huEGFR
Briefly: FACS, VHH-His on MDA-MB-468 cells. (Flow cytometry measures light scatter and fluorescence of single cells or particles in a stream.)
In turn, B1 showed a Maximum MFI value of 9680 MFI.
Molecule B2 returned a Maximum MFI value of 27400 MFI.
Still for that read-out and setting: as for B3, the figure is 5790 MFI.
On the same count and under the same terms, with B4 the figure was 3770 MFI; with B5, 5480 MFI; with B6, 10300 MFI.
On the same count and under the same terms, as for B7, the figure is 5260 MFI.
Turning to B8, the EC50 stood at 2.04 nM and the “Maximum MFI value” is 94600 MFI.
For B9, in that order: 1.43 nM and 57100 MFI.
Taken in the same sequence, the figures for B10 were 1.3 nM and 71100 MFI.
For B11, in that order: 23.2 nM and 93600 MFI.
For B12, the EC50 came out at 0.219 nM and the “Maximum MFI value” amounted to 59200 MFI.
For the molecule B13, the half-maximal effective concentration (EC50) stood at 1.94 nM and the “Maximum MFI value” worked out at 74200 MFI.
For B14, in that order: 3.13 nM and 76800 MFI.
For B15, in that order: 0.429 nM and 58700 MFI.
For B16, in that order: 1.15 nM and 86900 MFI.
B17 had a Maximum MFI value of 3480 MFI.

For a further assay, the target named is T2, human EGFR-his (ECD, Met1-Ser645) (human, UniProt P00533 25-645).
T2 construct: range 1-645; Bought; range as printed includes Met1
Briefly: SPR, antigen amine-coupled on GLM chip, antibody injected, 1:1 model.
Molecule B18 registered a dissociation constant (Kd) of 48.9 nM, an off-rate constant (koff) of 0.0135 s⁻¹ and a kon of 276000 M⁻¹ s⁻¹.
Taken in the same sequence, the figures for B19 were 31.7 nM, 0.00354 s⁻¹ and 112000 M⁻¹ s⁻¹.
In turn, B20 came in with a Kd of 25.1 nM, a koff of 0.003 s⁻¹ and a kon of 119000 M⁻¹ s⁻¹.
Taken in the same sequence, the figures for B21 were 0.0128 nM, 1.17e-06 s⁻¹ and 91600 M⁻¹ s⁻¹.
Taken in the same sequence, the figures for B22 were 0.0027 nM, 2.35e-07 s⁻¹ and 86900 M⁻¹ s⁻¹.

The target of another assay is T3, cynomolgus monkey EGFR-his (ECD, Met1-Ser645) (cynomolgus monkey, UniProt A0A2K5WK39 1-645).
T3 construct: range 1-645; Bought; range as printed includes Met1
The description is as above.
For B18, the Kd was determined as 37.4 nM, the koff was 0.0162 s⁻¹ and the on-rate (kon) worked out at 433000 M⁻¹ s⁻¹.
B19 gave a dissociation constant (Kd) of 27.8 nM, a koff of 0.00206 s⁻¹ and an association rate constant (kon) of 74100 M⁻¹ s⁻¹.
For B20, in that order: 21.8 nM, 0.00246 s⁻¹ and 112000 M⁻¹ s⁻¹.
Take B21: the Kd was 0.00135 nM, the koff came out at 1.25e-07 s⁻¹ and the kon came to 93200 M⁻¹ s⁻¹.
Taken in the same sequence, the figures for B22 were 0.0255 nM, 1.95e-06 s⁻¹ and 76400 M⁻¹ s⁻¹.

In the next assay the target is T4, cynomolgus monkey cMet-his (ECD, Met1-Thr932) (cynomolgus monkey, UniProt A0A2K5UM36 25-932).
T4 construct: Bought; range as printed includes Met1
T4 sequence (A0A2K5UM36 entry or part of it limits assumed, form in doubt): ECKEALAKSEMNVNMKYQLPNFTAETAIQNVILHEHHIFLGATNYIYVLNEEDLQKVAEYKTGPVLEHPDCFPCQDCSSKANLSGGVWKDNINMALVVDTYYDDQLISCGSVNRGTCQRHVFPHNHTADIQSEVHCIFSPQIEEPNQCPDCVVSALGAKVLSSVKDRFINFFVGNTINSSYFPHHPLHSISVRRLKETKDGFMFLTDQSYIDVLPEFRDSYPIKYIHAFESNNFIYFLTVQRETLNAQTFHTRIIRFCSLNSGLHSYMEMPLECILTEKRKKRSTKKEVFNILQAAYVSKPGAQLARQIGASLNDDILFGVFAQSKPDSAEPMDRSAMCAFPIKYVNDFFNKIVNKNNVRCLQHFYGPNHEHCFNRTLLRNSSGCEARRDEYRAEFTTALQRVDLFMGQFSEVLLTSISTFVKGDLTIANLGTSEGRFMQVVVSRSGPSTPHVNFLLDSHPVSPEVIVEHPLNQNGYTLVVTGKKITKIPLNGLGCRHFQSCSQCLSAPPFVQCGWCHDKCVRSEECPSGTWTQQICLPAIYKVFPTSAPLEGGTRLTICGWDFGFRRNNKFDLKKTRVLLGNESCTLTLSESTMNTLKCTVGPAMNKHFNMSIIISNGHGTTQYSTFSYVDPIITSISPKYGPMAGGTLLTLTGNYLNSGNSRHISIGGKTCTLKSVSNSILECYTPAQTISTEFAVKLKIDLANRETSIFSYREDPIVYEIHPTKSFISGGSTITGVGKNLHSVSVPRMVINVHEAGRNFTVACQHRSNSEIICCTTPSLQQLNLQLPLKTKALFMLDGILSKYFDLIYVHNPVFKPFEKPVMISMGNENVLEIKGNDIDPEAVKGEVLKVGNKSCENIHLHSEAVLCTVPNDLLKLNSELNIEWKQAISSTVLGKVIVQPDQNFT
The assay is described as above.
Molecule B18 returned a dissociation constant Kd of 1.91 nM, a koff of 0.000381 s⁻¹ and a kon of 200000 M⁻¹ s⁻¹.
Taken in the same sequence, the figures for B19 were 6.43 nM, 0.000855 s⁻¹ and 133000 M⁻¹ s⁻¹.
For B20, in that order: 5.99 nM, 0.00106 s⁻¹ and 176000 M⁻¹ s⁻¹.
For B21, in that order: 6.59 nM, 0.000789 s⁻¹ and 120000 M⁻¹ s⁻¹.
Turning to B22, the dissociation constant (Kd) is 10.2 nM, the koff amounted to 0.0011 s⁻¹ and the kon amounted to 108000 M⁻¹ s⁻¹.

The next assay deals with T5, human cMet-his (ECD, Met1-Thr932) (human, UniProt P08581 25-932).
T5 construct: Bought; range as printed includes Met1
T5 sequence (P08581 25-932): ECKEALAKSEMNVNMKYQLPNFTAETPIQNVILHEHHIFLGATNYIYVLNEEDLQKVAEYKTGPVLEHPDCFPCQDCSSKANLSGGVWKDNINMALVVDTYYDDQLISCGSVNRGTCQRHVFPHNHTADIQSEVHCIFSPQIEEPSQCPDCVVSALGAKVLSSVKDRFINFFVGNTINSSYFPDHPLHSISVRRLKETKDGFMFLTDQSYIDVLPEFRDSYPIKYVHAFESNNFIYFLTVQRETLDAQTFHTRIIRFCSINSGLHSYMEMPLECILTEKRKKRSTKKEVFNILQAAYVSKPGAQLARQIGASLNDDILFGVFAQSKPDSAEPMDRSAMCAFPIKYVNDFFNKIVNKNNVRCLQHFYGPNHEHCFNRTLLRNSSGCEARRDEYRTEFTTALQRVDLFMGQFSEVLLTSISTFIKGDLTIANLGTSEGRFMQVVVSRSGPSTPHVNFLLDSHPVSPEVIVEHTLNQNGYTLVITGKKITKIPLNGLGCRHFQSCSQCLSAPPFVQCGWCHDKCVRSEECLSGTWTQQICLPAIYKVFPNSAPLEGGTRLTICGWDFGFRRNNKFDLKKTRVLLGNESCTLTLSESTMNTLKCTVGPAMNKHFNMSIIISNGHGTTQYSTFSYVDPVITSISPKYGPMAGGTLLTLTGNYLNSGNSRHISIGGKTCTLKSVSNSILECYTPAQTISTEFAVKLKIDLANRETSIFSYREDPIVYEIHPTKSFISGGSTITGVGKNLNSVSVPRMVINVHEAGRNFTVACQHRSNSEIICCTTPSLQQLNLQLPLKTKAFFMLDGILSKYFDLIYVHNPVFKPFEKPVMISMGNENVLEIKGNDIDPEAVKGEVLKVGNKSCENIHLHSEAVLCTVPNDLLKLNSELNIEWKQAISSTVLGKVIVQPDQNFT
The description is as above.
Consider B18, for which the equilibrium dissociation constant (Kd) is 2.72 nM, the off-rate (koff) was 0.000825 s⁻¹ and the kon is 304000 M⁻¹ s⁻¹.
Taken in the same sequence, the figures for B19 were 9.81 nM, 0.00132 s⁻¹ and 135000 M⁻¹ s⁻¹.
For B20, in that order: 8.61 nM, 0.00158 s⁻¹ and 183000 M⁻¹ s⁻¹.
For B21, in that order: 10.2 nM, 0.00133 s⁻¹ and 130000 M⁻¹ s⁻¹.
Molecule B22 showed a dissociation constant (Kd) of 14.4 nM, a koff of 0.00167 s⁻¹ and an on-rate constant (kon) of 116000 M⁻¹ s⁻¹.
